In US20090285799A1:

Key:
[1] = biological target: T1, hIL-13Rα1.ECR (N-terminal FLAG-tagged fusion protein of the extracellular region of human IL-13Rα1) (human) (UniProt P78552); assay: ELISA on plate-bound hIL-13Rα1.ECR
T1 sequence: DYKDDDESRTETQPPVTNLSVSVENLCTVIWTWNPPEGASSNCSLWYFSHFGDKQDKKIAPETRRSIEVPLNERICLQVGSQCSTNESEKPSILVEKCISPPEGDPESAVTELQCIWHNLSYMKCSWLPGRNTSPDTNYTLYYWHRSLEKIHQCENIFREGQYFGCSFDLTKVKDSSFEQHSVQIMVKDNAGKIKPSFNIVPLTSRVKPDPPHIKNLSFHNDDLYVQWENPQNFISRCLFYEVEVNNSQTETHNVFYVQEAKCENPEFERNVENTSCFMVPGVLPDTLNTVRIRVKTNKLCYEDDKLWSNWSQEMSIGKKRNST

[2] = biological target: T1, hIL-13Rα1.ECR (N-terminal FLAG-tagged fusion protein of the extracellular region of human IL-13Rα1) (human); assay: BIACORE SPR, hIL-13Rα1.ECR immobilized on CM5 chip, antibody as analyte, bivalent model
[3] = biological target: T2, human IL-13Rα1 on normal human dermal fibroblast (NHDF) cells (human) (UniProt P78552); assay: cell-based or functional assay
T2 sequence: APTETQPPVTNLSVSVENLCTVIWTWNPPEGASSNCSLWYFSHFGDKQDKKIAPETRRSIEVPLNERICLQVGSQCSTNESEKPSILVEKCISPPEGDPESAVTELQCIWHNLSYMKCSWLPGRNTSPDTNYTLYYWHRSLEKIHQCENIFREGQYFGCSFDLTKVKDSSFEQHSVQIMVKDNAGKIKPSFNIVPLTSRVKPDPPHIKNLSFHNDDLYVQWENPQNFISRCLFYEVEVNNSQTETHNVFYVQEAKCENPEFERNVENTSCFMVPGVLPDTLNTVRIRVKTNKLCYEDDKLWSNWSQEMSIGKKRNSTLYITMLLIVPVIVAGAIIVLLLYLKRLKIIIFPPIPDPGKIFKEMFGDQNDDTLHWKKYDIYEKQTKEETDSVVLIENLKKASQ

- Kd [1]: 1.2 nM
- Kd [2]: 5.8 nM
- NHDF cells IL-13 Eotaxin release (IC50) [on average] [3]: 0.35 µg/mL
B1: 4A10 (antibody, part only; not given: light chain, V domains shown, part only)
VH: QVQLVESGGGVVQPGRSLRLSCAASGFTFSNYGMHWVRQAPGKGLEWVAAIWYDGSDKNYADSVKGRVTISRDTSKKTLYLQMNSLRAEDTAIYYCAREITIMRGLIKNYYYYGMDVWGQGTTVTVSS
